Assays:
[1] = biological target: cross-linked NBD1-M dimer with Walker B mutation E271Q in the free interface (Thermus thermophilus) (UniProt Q9RA63); assay: SEC-MALS; Superdex 200 10/300 GL with multiangle static light scattering (SLS), buffer A (50 mM Tris/HCl pH 7.5, 50 mM KCl, 5 mM MgCl2, 2 mM EDTA); running buffer nucleotide-free or with 2 mM ADP or 2 mM ATP; 40 μl of 100 μM injected, about 2 μM at the detector; self-association induced by nucleotide; settings: scale: NBD1-M subunits
[2] = biological target: cross-linked NBD1-M dimer with Walker B mutation E271Q in the cross-linked interface (Thermus thermophilus) (UniProt Q9RA63); assay: as above; settings: scale: NBD1-M subunits

Substance	stoichiometry N [1]	stoichiometry N [2]
cross-linked NBD1-M dimer with Walker B mutation E271Q in the free interface (from UniProt Q9RA63 141-534; Q9RA63 141-534) (complex)	4	
cross-linked NBD1-M dimer with Walker B mutation E271Q in the cross-linked interface (from UniProt Q9RA63 141-534; Q9RA63 141-534) (complex)		4

From paper PMC4239642, “trans-Acting Arginine Residues in the AAA+ Chaperone ClpB Allosterically Regulate the Activity through Inter- and Intradomain Communication” (The Journal of Biological Chemistry, 2014)
